Where a chain is given by its changes, count along the chain named. Values belong to the binder of their own block, whether it stands above or below them.
What was measured:
[1] = molecular target: T1, human TL1A, soluble, CHO-expressed, residues 72-251 of SEQ ID NO:244 with N-terminal His6-tag (human, UniProt O95150 72-251); assay: SPR 25C, mAb captured
T1 construct: also called hTL1A; hTL1A (CHO)
T1 sequence: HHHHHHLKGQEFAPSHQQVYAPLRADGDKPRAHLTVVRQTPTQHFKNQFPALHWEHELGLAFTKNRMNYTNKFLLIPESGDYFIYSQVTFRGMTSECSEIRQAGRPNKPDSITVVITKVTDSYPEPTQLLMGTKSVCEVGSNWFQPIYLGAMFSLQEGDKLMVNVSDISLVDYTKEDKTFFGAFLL
How it was run: (§1)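 Biacore T100 SPR with captured mAb and soluble TL1A/Fhm analyte; ka and kd fitted to a 1:1 model assuming monomeric TL1A. KD = kd/ka; t1/2 (min) = ln2/(60·kd).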

[2] = molecular target: T2, cynomolgus monkey TL1A, soluble, CHO-expressed, residues 72-251 of SEQ ID NO:248 with N-terminal His6-tag (cynomolgus monkey (Macaca fascicularis), UniProt O95150 72-251 (human entry)); assay: SPR 25C, mAb captured
T2 construct: also called MfTL1A; MfTL1A (CHO)
T2 chain: T1 sequence with F45L, I84V
How it was run: as §1

[3] = molecular target: T1, human TL1A, soluble, CHO-expressed, …; assay: cell-based or functional assay
[4] = molecular target: T3, human TL1A, soluble, E. coli-expressed, residues 72-251 of SEQ ID NO:244 (human, UniProt O95150 72-251); assay: cell-based or functional assay
T3 sequence: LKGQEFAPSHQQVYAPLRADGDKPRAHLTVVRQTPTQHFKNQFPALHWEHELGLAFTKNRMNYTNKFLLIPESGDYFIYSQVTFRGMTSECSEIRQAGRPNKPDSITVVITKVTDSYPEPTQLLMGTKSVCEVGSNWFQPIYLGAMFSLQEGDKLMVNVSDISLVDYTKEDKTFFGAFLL

[5] = molecular target: T2, cynomolgus monkey TL1A, soluble, …; assay: cell-based or functional assay
[6] = molecular target: T4, cynomolgus monkey TL1A, soluble, E. coli-expressed, residues 72-251 of SEQ ID NO:248 (cynomolgus monkey (Macaca fascicularis), UniProt O95150 72-251 (human entry)); assay: cell-based or functional assay
T4 chain: T3 sequence with F39L, I78V

[7] = molecular target: T1, human TL1A, soluble, CHO-expressed, …; assay: cell-based or functional assay; remark: listed apart in the source
[8] = molecular target: T1, human TL1A, soluble, CHO-expressed, …; assay: ELISA, blocks hTL1A (10 pM) binding hDcR3-Fc
How it was run: (§2)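 Competition sandwich ELISA: biotinylated CHO-expressed ligand (human TL1A, FHM Q167R variant, or cynomolgus TL1A) at fixed concentration preincubated with titrated antibody 1 h at 25 °C, then 1 h on hDR3-Fc or hDcR3-Fc coated wells. Bound ligand detected by streptavidin-HRP/TMB at 450 nm; sigmoidal dose-response fit.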

[9] = molecular target: T2, cynomolgus monkey TL1A, soluble, …; assay: ELISA, blocks MfTL1A (500 pM) binding hDR3-Fc
How it was run: as §2

B1: H4H1725P (antibody, human IgG4 S228P, V domains shown)
VH: QVQLVQSGAEVKKPGASVKVSCKASGYTFTGYYMHWVRQAPGQGLEWMGWIKPKSGGTNYVQKFQGRVTMTRDTSINTAYMELNNLKSDDTAVYYCATGGSQDASDFWGQGTMVTVSS
VL: DIQMTQSPSSVSASVGGRVTITCRASQDISIWLAWYQQKPGKAPNLLIYAASSLQSGVPSRFSGSGSGTDFTLTISSLQPEDFATYYCQQADSFPLTFGGGTKVEIK
- Kd [1]: 63.6 pM
- t1/2 [1]: 3.08 h
- Kd [2]: 346 pM
- t1/2 [2]: 1.07 h
- IC50, NFkB-luciferase reporter [3]: 50 pM
- IC50, NFkB-luciferase reporter [4]: 20 pM
- IC50, NFkB-luciferase reporter [5]: 10 pM
- IC50, NFkB-luciferase reporter [6]: 20 pM
- Average % Blocking IFN-g, 3 ug/ml mAb [7]: 94%
- IC50 [8]: 68 pM
- IC50 [9]: 16 pM

B4: H4H1742P (antibody, human IgG4 S228P, V domains shown)
VH: EVQLVESGGGLVQPGGSLRLSCAASGFTFSNYVMNWVRQAPGKGLEWVSVISGSGGSTHYADSVKGRFTISRDNSKDALYLQMNSLRAEDTAVYYCAKGPLEAYYYYNGMDVWGQGTTVTVSS
VL: DIQLTQSPSFLSASVGDRVTITCWASQAISSYLAWYQHKPGRAPKLLIYSTSTLQSGVPSRFSGSGSGTEFTLTISSLQPEDFATYYCQQLNSYPTFGQGTKLEIK
- Kd [1]: 60.4 pM
- t1/2 [1]: 12.6 h
- Kd [2]: 115 pM
- t1/2 [2]: 9.62 h
- IC50, NFkB-luciferase reporter [3]: 310 pM
- IC50, NFkB-luciferase reporter [4]: 190 pM
- IC50, NFkB-luciferase reporter [5]: 260 pM
- IC50, NFkB-luciferase reporter [6]: 70 pM
- Average % Blocking IFN-g, 3 ug/ml mAb [7]: 83%
- IC50 [8]: 181 pM
- IC50 [9]: 240 pM

B5: H4H1745P (antibody, human IgG4 S228P, V domains shown)
VH: EVQLVESGGGLVQPGGSLRLSCAASGFTFSSYAMTWVRQAPGKGLEWVSGVSGRGGSTYYADSVKGRFTISRDNSKNTLYLQMNSLRAEDTAVYYCAYWDISSFDYWGQGTLVTVSS
VL: DIQLTQSPSFLSASVGDRVTITCWASQGISTYLAWYQQKPGKTPKLLIYAASTLQSGVPSRFSGSGSGTDFTLTISSLQPEDFATYYCQQFNSYPLTFGGGTKVEIK
- Kd [1]: 164 pM
- t1/2 [1]: 2.87 h
- Kd [2]: 115 pM
- t1/2 [2]: 3.85 h
- IC50, NFkB-luciferase reporter [3]: 90 pM
- IC50, NFkB-luciferase reporter [4]: 60 pM
- IC50, NFkB-luciferase reporter [5]: 50 pM
- IC50, NFkB-luciferase reporter [6]: 30 pM
- Average % Blocking IFN-g, 3 ug/ml mAb [7]: 91%
- IC50 [8]: 58 pM
- IC50 [9]: 50 pM

More lines, now with the values ahead:

- Kd [1]: 481 pM
- t1/2 [1]: 0.733 h
- Kd [2]: 417 pM
- t1/2 [2]: 0.75 h
- IC50, NFkB-luciferase reporter [3]: 60 pM
- IC50, NFkB-luciferase reporter [4]: 20 pM
- IC50, NFkB-luciferase reporter [5]: 10 pM
- IC50, NFkB-luciferase reporter [6]: 20 pM
- Average % Blocking IFN-g, 3 ug/ml mAb [7]: 78%
- IC50 [8]: 44 pM
- IC50 [9]: 46 pM
B2: H4H1719P (antibody, human IgG4 S228P, V domains shown)
VH: EVQLVESGGGLVQPGRSLRLSCVASGFTFQDYAMHWVRQAPGKGLEWVSGINWISDDMGYADSVMGRFTISRDNAKNSLYLQMDSLRAEDTALYYCAKDKGLRFLDYVMDVWGQGTTVTVSA
VL: DIVMTQSPLSLPVTPGEPASISCRSTQSLLHRNGHNYLHWYLHKPGQSPQLLIHLGSNRASGVPDRFSGSGSGTDFTLKISRVEAEDVGVYYCMQALQTPYTFGQGTKLEIK

- Kd [1]: 608 pM
- t1/2 [1]: 1.07 h
- Kd [2]: 361 pM
- t1/2 [2]: 1.55 h
- IC50, NFkB-luciferase reporter [3]: 390 pM
- IC50, NFkB-luciferase reporter [4]: 160 pM
- IC50, NFkB-luciferase reporter [5]: 390 pM
- IC50, NFkB-luciferase reporter [6]: 70 pM
- Average % Blocking IFN-g, 3 ug/ml mAb [7]: 81%
- IC50 [8]: 122 pM
- IC50 [9]: 117 pM
B3: H4H1738P (antibody, human IgG4 S228P, V domains shown)
VH: EVQLVESGGALVKPGGSLRLSCAVSGFTFINDWMNWVRQAPGKGLEWVGRIKSTTDGGTTDDAAPVKGRFTISRDDSKNTLYLQMNSLKTEDTAVYYCTRDRNRQRNYFYDGMDVWGQGTTVTVSA
VL: B2 VL with L9V, T26S, S28R, R32N, H35N, H39D, H43Q, H54Y, I80V
